Measurements reported in article PMC7611114 (Nature chemistry, 2021).

Biological target: the molecule itself
Experiment: crystal structure

B1: K2-CCTM-VbIc (peptide)
peptide: Ac-GKKSAWATVISALATVISALATVISAWATVG-NH2
stoichiometry N: 8
